Test results as given in PMC8304084, “A Concerted Action of UBA5 C-Terminal Unstructured Regions Is Important for Transfer of Activated UFM1 to UFC1” (International Journal of Molecular Sciences, 2021).

Legend:
UFC1 = molecular target: T1, UFC1 (Homo sapiens, UniProt Q9Y3C8); assay: In vitro thioester formation (ufmylation) assay, UFC1~UFM1 conjugate; format: biochemical; settings: 1 mM ATP, 22 °C; peptides added to UBA5 AD^1–330 where applicable
T1 construct: Full length UFC1, residues 1–167; modified ubiquitin tag (Ub19) with TEV site (N, cleaved yes); made in house; host or cells: E. coli T7 Express
T1 sequence (Q9Y3C8 1-167): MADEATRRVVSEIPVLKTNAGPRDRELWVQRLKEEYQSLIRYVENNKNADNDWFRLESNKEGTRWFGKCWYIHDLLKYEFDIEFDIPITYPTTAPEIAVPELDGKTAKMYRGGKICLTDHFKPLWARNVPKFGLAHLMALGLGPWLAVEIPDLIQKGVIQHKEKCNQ
Experimental: First, we analyzed the effect of the UBA5 C-terminus on UFM1 transfer to UFC1 with an in vitro thioester formation assay (Figure 1B–E).
Ufmylation reaction assays were adopted from work of Xie. Briefly, 70 µM UFM1, 20 µM UFC1 and 20 µM of different UBA5 constructs were mixed in reaction buffer (50 mM HEPES pH = 7.5, 100 mM NaCl, 5 mM MgCl2). After starting the reaction with addition of 1 mM ATP, the reaction mix was incubated at 22 °C for the desired time. To quench the reaction and prepare electrophoretic samples, 1 µL of the reaction mix was added to 99 µL 1x non-reducing SDS loading buffer and frozen in liquid nitrogen. Sample content was visualized by sodium dodecyl sulfate polyacrylamide gel electrophoresis (SDS-PAGE). The transfer to polyvinylidene difluoride (PVDF) membrane was performed via a Trans-Blot® Turbo™ Transfer System (Bio-Rad, München, Germany). After transfer the membrane was blocked with TBST (Tris-buffered saline with Tween20 buffer, 20 mM Tris, 150 mM NaCl and 0.1% TWEEN 20) containing 5% w/v nonfat dry milk for 1 h, followed by α-UFC1 antibody incubation over night at 4 °C (ab189251 abcam, 1:10,000 in TBST containing 5% w/v nonfat dry milk). After washing with TBST the membrane was incubated with secondary antibody (anti-rabbit-HRP) for 1 h at RT and again washed with TBST. Detection was performed by addition of ECL solution. For quantification of UFC1 ufmylation coloc2 software implemented in ImageJ was used.

GABARAPL2 = molecular target: T2, GABARAPL2 (Homo sapiens, UniProt P60520); assay: ITC, UBA5 peptides vs GABARAPL2; format: binding; settings: 25 °C
T2 construct: modified ubiquitin tag (Ub19) with TEV site (N, cleaved yes); made in house; host or cells: E. coli T7 Express
T2 sequence (P60520 3-116): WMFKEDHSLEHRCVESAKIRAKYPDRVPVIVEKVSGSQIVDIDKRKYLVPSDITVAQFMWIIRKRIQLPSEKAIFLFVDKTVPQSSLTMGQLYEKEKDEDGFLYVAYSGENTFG
Description: (§1) To understand how the UBA5 C-terminus participates in the ufmylation cascade, we performed isothermal titration calorimetry (ITC) experiments, in which we titrated UBA5 C-terminal peptides (see Table 1) to the UBA5 AD, UFC1, UFM1 and representative LC3/GABARAP proteins (Figure 2A, Supplementary Figure S2A–D and Table 2).
(§2) All proteins and peptides were expressed in E.Coli T7 Express (New England Biolabs GmbH, Frankfurt, Germany) cells in LB or M9 (to obtain ^15N- and ^13C,^15N-labeled polypeptides) media according to the protocol described in [33, 36]. For protein purification, bacterial cell pellets were resuspended in lysis buffer (50 mM Tris-HCl pH = 7.5, 100 mM NaCl, 5% glycerol, 5 mM PIC (protease inhibitor cocktail)) and lysed via sonication (TT13 Sonotrode, 40% amplitude, for 6 × 1 min with a 0.5/0.5-s pulse). Lysates were centrifuged for 45 min at 17,000× g at 4 °C. Supernatants were loaded onto a His Trap Fast Flow 5 mL column (GE Healthcare, München, Germany) equilibrated in loading buffer (50 mM Tris-HCl pH = 8.0, 250 mM NaCl, 1% glycerol, 20 mM imidazole). The column was washed with loading buffer for 5–10 CV and protein was eluted with elution buffer (50 mM Tris-HCl pH = 8, 250 mM NaCl, 1% glycerol, 400 mM imidazole). Simultaneous TEV cleavage (1 mg TEV protease was added to 100 mg peptides/proteins) and buffer exchange to loading buffer via dialysis was performed over night at 4 °C. After reverse IMAC, proteins were concentrated with conical concentrators (Millipore Merck, Darmstadt, Germany) and loaded on a Superdex 10/60 75 or 200 column (GE Healthcare, München, Germany) for further purification and equilibration with ITC/NMR buffer (25 mM HEPES pH = 7.5, 100 mM NaCl). For structural NMR spectroscopy, buffer containing 50 mM Tris-HCl pH = 7.5, 100 mM NaCl was used. Prior to NMR experiments, TCEP and protease inhibitors cocktail were added to the samples to final concentrations 1 and 5 mM, respectively. Purified peptides and protein were concentrated and stored at −80 °C. The protein and peptide concentrations were calculated from the UV absorption at 280 nm by Nanodrop spectrophotometer (Thermo Scientific, Langenselbold, Germany).
(§3) All ITC experiments were performed at 25 °C using a VP-ITC microcalorimeter (Malvern Panalytical Ltd., Malvern, UK). Peptides in concentration of ~400 µM were titrated into 20–25 µM solutions of corresponding binding partner at a stirring speed of 307 rpm. The raw data were corrected on the dilution heat of peptides obtained in independent experiment (titration of the peptide in syringe into the ITC/NMR buffer in the measuring cell). Pre-titration delay was set to 180 s, interval between titration steps was experimentally adjusted to avoid kinetic contribution to the observed heat effects and set to 200 s. A single ITC profile was collected for each type of interaction. The ITC data were analyzed based on a “one-site” binding model with MicroCal ITC software implemented in Origin 7.0.

UBA5 AD^1–330 = assay: ITC, UBA5 C-terminus vs UBA5 AD; format: binding; settings: 25 °C, R1-R2-R3^325–404 titrated into AD^1–330 solution
Description: as §1
All proteins and peptides were expressed in E.Coli T7 Express (New England Biolabs GmbH, Frankfurt, Germany) cells in LB or M9 (to obtain ^15N- and ^13C,^15N-labeled polypeptides) media according to the protocol described in [33, 36]. For protein purification, bacterial cell pellets were resuspended in lysis buffer (50 mM Tris-HCl pH = 7.5, 100 mM NaCl, 5% glycerol, 5 mM PIC (protease inhibitor cocktail)) and lysed via sonication (TT13 Sonotrode, 40% amplitude, for 6 × 1 min with a 0.5/0.5-s pulse). Lysates were centrifuged for 45 min at 17,000× g at 4 °C. […] The protein and peptide concentrations were calculated from the UV absorption at 280 nm by Nanodrop spectrophotometer (Thermo Scientific, Langenselbold, Germany).
All ITC experiments were performed at 25 °C using a VP-ITC microcalorimeter (Malvern Panalytical Ltd., Malvern, UK). […] The ITC data were analyzed based on a “one-site” binding model with MicroCal ITC software implemented in Origin 7.0. […]

UFM1 = molecular target: T3, UFM1 (Homo sapiens, UniProt P61960); assay: ITC, UBA5 peptides vs UFM1; format: binding; settings: 25 °C
T3 construct: Full length UFM1, residues 2–83; modified ubiquitin tag (Ub19) with TEV site (N, cleaved yes); made in house; host or cells: E. coli T7 Express
T3 sequence (P61960 2-83): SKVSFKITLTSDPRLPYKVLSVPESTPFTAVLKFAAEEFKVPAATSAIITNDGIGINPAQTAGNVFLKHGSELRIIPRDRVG
Description: as §1, §2, §3

R1-R2-R3^325–404: UBA5 C-terminal part, residues 325–404 (recombinant, E. coli)
effect on UFC1~UFM1 conjugation (in words) (UFC1): gets rescued | ΔG (GABARAPL2; vs GABARAPL2): -9.25 kcal/mol | ΔS (GABARAPL2; vs GABARAPL2): 2.04 cal mol^−1 K^−1 | −T*ΔS (GABARAPL2; vs GABARAPL2): -0.61 kcal/mol | KA*10^−6 (GABARAPL2; vs GABARAPL2, value is KA × 10^−6, ± = fitting error): 5.99 ± 0.49 M^−1 | interaction with UBA5 AD (UBA5 AD^1–330): does not interact with the UBA5 AD | interaction with UBA5 AD (UBA5 AD^1–330; listed as R1‐R2‐R3325–404): No interactions | affinity change, UFM1 (UFM1; compared with isolated R1^325−357 peptide (ref 31)): does not change significantly | ΔG (UFM1; vs UFM1): -7.15 kcal/mol | −T*ΔS (UFM1; vs UFM1): -1.31 kcal/mol | ΔS (UFM1; vs UFM1, one-site model, single profile): 4.41 cal mol^−1 K^−1 | KA*10^−6 (UFM1; vs UFM1, value is KA × 10^−6, ± = fitting error): 0.17 ± 0.02 M^−1
